B1: HDV Ribozyme (parent)
chain: GGCCGGCAUGGUCCCAGCCUCCUCGCUGGCGCCGGCUGGGCAACAUUCCGAGGGGACCGUCCCCUCGGUAAUGGCGAAUGGGACCCA

Variants of: B1
Experiment: self-cleavage, relative activity (ratio to wild type); higher = more cleavage; co-transcriptional

First: GGCCGGCAUGGUCCCAGCCUCCGCGCUGGCGCCGGCUGGGCAACAUUCCGAGGGGACCGUCCCCUCGGUAAUGGCGAAUCGGACCCA
Second: GGCCGGCAUGGUCCCAGCCUCCGCGCUGGCGCCGGCUGGGCAACAUUCCCAGGGGACCGUCCCCUCGGUAAUGGCGAAUGGGACCCA
The self-cleavage of the first is lower: 0.147 for the first, 0.767 for the second.

First: GGCCGGCAUGGUCCCAGCCUCCGCGCUGGCGCCGGCUGGGCAACAUUCCAAGGGGACCGUCCCCUCGGUAAUGGCGAAUGGGACCCA
Second: GGCCGGCAUGGUCCCAGCCUCCGCGCUGGCGCCGGCUGGGCAACAUUCCGAAGGGACCGUCCCCUCGGUAAUGGCGAAUGGGACCCA
The self-cleavage of the first is higher: 0.614 for the first, 0.554 for the second.

Going from GGCCGGCAUGGUCCCAGCCUCCGCGCUGGCGCCGGCUGUGCAACAUUCCGAGGGGACCGUCCCCUCGGUAAUGGCGAAUGGGACCCA to GGCCGGCAUGGUCCCAGCCUCCGCGCUGGCGCCGGCUGGACAACAUUCCGAGGGGACCGUCCCCUCGGUAAUGGCGAAUGGGACCCA, the self-cleavage rises from 0.405 to 0.76.

Compared with GGCCGGCAUGGUCCCAGCCUCCGCGCUGGCGCCGGCUGGCCAACAUUCCGAGGGGACCGUCCCCUCGGUAAUGGCGAAUGGGACCCA, GGCCGGCAUGGUCCCAGCCUCCGCGCAGGCGCCGGCUGGGCAACAUUCCGAGGGGACCGUCCCCUCGGUAAUGGCGAAUGGGACCCA is higher in self-cleavage: 0.135 for the first, 0.594 for the second.

Going from GGCCGGCAUGGUCCCAGCCUCCGCGCUGGCGCCGGCUGGGCAACAUUCCGAGGCGACCGUCCCCUCGGUAAUGGCGAAUGGGACCCA to GGCCGGCAUGGUCCCAGCCUCCGCGCUGGCGCCGGCUGGGCAACAUUCCGAGGGGACCGUCCCCUCGGUAAUGGCGAAUGCGACCCA, the self-cleavage falls from 0.598 to 0.166.

Compared with GGCCGGCAUGGUCCCAGCCUCCGCGCUGGCGCCGGCUGGGCAACAUUCCGAGGGGACCGUCCCCUCGGUAAUGGCGAAUGUGACCCA, GGCCGGCAUGGUCCCAGCCUCCGCGCUGGCGCCGGCUGGGCAACAUUCCGAGGGGACCGUCCCCUCGGUAAUGGCGAAUGAGACCCA is lower in self-cleavage: 0.117 for the first, 0.0426 for the second.

First: GGCCGGCAUGGUCCCAGCCUCCGCGCUGGCGCCGGCUCGGCAACAUUCCGAGGGGACCGUCCCCUCGGUAAUGGCGAAUGGGACCCA
Second: GGCCGGCAUGGUCCCAGCCUCCGCGCUGGCGCCGGCUAGGCAACAUUCCGAGGGGACCGUCCCCUCGGUAAUGGCGAAUGGGACCCA
The self-cleavage of the first is higher: 0.095 for the first, 0.0923 for the second.

Compared with GGCCGGCAUGGUCCCAGCCUCCGCGCUGGCGCCGGCUUGGCAACAUUCCGAGGGGACCGUCCCCUCGGUAAUGGCGAAUGGGACCCA, GGCCGGCAUGGUCCCAGCCUCCGCGCUGGCGCCGGCUGGGCAACAUUCCGAGGGGACCGUCCCCUCGAUAAUGGCGAAUGGGACCCA is higher in self-cleavage: 0.0583 for the first, 0.565 for the second.

Compared with GGCCGGCAUGGUCCCAGCCUCCGCGCUGGCGCCGGCUGGGCAACAUUCCGAGGGGACCGUCCCCUCGGUAAUGGCUAAUGGGACCCA, GGCCGGCAUGGUCCCAGCCUCCGCGCUGGCGCCGGCUGGGCAACAUUCCGAGGGGACCGUCCCCUCAGUAAUGGCGAAUGGGACCCA is lower in self-cleavage: 1.05 for the first, 0.628 for the second.

First: GGCCGGCAUGGUCCCAGCCUCCGCGCUGGCGCCCGCUGGGCAACAUUCCGAGGGGACCGUCCCCUCGGUAAUGGCGAAUGGGACCCA
Second: GGCCGGCAUGGUCCCAGCCUCCGCGCUGGCGCCGGCUGGGCAACAUUCCGAGGGGACCGUCCCCUCGGUAAUGGCGAAUGGCACCCA
The self-cleavage of the first is lower: 0.0415 for the first, 0.222 for the second.

Going from GGCCGGCAUGGUCCCAGCCUCCGCGCUGGCGCCGACUGGGCAACAUUCCGAGGGGACCGUCCCCUCGGUAAUGGCGAAUGGGACCCA to GGCCGGCAUGGUCCCAGCCUCCGCGCUGGCGCCGCCUGGGCAACAUUCCGAGGGGACCGUCCCCUCGGUAAUGGCGAAUGGGACCCA, the self-cleavage falls from 0.324 to 0.0639.

Compared with GGCCGGCAUGGUCCCAGCCUCCGCGCUGGCGCCGUCUGGGCAACAUUCCGAGGGGACCGUCCCCUCGGUAAUGGCGAAUGGGACCCA, GGCCGGCAUGGUCCCAGCCUCCGCGCUGGCACCGGCUGGGCAACAUUCCGAGGGGACCGUCCCCUCGGUAAUGGCGAAUGGGACCCA is lower in self-cleavage: 0.283 for the first, 0.175 for the second.

Compared with GGCCGGCAUGGUCCCAGCCUCCGCGCUGGCUCCGGCUGGGCAACAUUCCGAGGGGACCGUCCCCUCGGUAAUGGCGAAUGGGACCCA, GGCCGGCAUGGUCCCAGCCUCCGCGCUGGCGCCGGCUGGGCAACAUUCCGAGGGUACCGUCCCCUCGGUAAUGGCGAAUGGGACCCA is higher in self-cleavage: 0.0639 for the first, 0.502 for the second.

Compared with GGCCGGCAUGGUCCCAGCCUCCGCGCUGGCGCCGGCUGGGCAACAUUCCGAGGGAACCGUCCCCUCGGUAAUGGCGAAUGGGACCCA, GGCCGGCAUGGUCCCAGCCUCCGCGCUGGCGCCGGCUGGGCAACAUUCCGAGGGGACCCUCCCCUCGGUAAUGGCGAAUGGGACCCA is higher in self-cleavage: 0.67 for the first, 0.9 for the second.

Compared with GGCCGGCAUGGUCCCAGCCUCCGCGCUGGCGCCGGCUGGGCAACAUUCCGAGGGGACCAUCCCCUCGGUAAUGGCGAAUGGGACCCA, GGCCGGCAUGGUCCCAGCCUCCGCGCUGGCGCCGGCUGGGCAACAUUCCGAGAGGACCGUCCCCUCGGUAAUGGCGAAUGGGACCCA is lower in self-cleavage: 0.708 for the first, 0.306 for the second.

Compared with GGCCGGCAUGGUCCCAGCCUCCGCGCUGGCGCCGGCUGGGCAACAUUCCGAGCGGACCGUCCCCUCGGUAAUGGCGAAUGGGACCCA, GGCCGGCAUGGUCCCAGCCUCCGCGCUGGCGCCGGCUGGGCAACAUUCCGAGUGGACCGUCCCCUCGGUAAUGGCGAAUGGGACCCA is higher in self-cleavage: 0.759 for the first, 0.866 for the second.

Source: the RNAGym collection of RNA variant scans (doi:10.7554/elife.80360)
